Reference: PMC2878485 (Structure (London, England : 1993), 2008)
Changes are numbered by the printed parent chain.

B1: 18 bp thiol-tethered DNA (dsDNA)
DNA 1: TACCGCAGCCATCAGAGT
DNA 2: ACTCTGATGGCTGCGGTA
modifications: single thiol tether on backbone phosphate between bases 11 and 12 of strand 1

Tests used:
[1] = biological target: UL44ΔC290 wild-type (Human cytomegalovirus, UniProt P16790 1-290); assay: disulfide crosslinking, nonreducing PAGE
[2] = biological target: T1, UL44ΔC290 (wild-type; N-terminal 290 residues of human cytomegalovirus UL44) (human cytomegalovirus, UniProt P16790 1-290); assay: ITC
T1 sequence (looked up): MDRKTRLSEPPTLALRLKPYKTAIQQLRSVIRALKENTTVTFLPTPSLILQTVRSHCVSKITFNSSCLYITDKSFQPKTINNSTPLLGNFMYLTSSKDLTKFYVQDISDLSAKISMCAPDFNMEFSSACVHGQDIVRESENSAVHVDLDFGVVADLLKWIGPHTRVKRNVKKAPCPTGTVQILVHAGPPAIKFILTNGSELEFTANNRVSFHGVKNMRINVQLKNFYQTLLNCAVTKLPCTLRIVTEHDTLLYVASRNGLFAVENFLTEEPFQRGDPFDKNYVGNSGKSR

[3] = biological target: T2, UL44ΔC290 K35A/K158A/K224A/K237A (human cytomegalovirus, UniProt P16790 1-290, K35A | K158A | K224A | K237A); assay: ITC
T2 sequence (looked up): T1 sequence (looked up) with K35A, K158A, K224A, K237A

[4] = biological target: T3, UL44ΔC290 R165A/K167A/R168A/K171A/K172A (human cytomegalovirus, UniProt P16790 1-290, R165A | K167A | R168A | K171A | K172A); assay: ITC
T3 sequence (looked up): T1 sequence (looked up) with R165A, K167A, R168A, K171A, K172A

Row | Binder | binding result [1] | binding result [2] | binding result [3] | binding result [4]
1 | B1 | binds | – | – | –
2 | LPRRLHLEPAFLPYSVKAHECC (peptide, UniProt P08546 1221-1242, looked up) [peptide corresponding to the C-terminal 22 residues of UL54] | – | binds | binds | binds
